According to patent US20220096654A1, “PYRROLOBENZODIAZEPINE-ANTIBODY CONJUGATES AND USES THEREOF” (ADC THERAPEUTICS SA, priority 2020, published 2022):

T1: human CD45 (human, UniProt P08575 26-1306)
T1 sequence: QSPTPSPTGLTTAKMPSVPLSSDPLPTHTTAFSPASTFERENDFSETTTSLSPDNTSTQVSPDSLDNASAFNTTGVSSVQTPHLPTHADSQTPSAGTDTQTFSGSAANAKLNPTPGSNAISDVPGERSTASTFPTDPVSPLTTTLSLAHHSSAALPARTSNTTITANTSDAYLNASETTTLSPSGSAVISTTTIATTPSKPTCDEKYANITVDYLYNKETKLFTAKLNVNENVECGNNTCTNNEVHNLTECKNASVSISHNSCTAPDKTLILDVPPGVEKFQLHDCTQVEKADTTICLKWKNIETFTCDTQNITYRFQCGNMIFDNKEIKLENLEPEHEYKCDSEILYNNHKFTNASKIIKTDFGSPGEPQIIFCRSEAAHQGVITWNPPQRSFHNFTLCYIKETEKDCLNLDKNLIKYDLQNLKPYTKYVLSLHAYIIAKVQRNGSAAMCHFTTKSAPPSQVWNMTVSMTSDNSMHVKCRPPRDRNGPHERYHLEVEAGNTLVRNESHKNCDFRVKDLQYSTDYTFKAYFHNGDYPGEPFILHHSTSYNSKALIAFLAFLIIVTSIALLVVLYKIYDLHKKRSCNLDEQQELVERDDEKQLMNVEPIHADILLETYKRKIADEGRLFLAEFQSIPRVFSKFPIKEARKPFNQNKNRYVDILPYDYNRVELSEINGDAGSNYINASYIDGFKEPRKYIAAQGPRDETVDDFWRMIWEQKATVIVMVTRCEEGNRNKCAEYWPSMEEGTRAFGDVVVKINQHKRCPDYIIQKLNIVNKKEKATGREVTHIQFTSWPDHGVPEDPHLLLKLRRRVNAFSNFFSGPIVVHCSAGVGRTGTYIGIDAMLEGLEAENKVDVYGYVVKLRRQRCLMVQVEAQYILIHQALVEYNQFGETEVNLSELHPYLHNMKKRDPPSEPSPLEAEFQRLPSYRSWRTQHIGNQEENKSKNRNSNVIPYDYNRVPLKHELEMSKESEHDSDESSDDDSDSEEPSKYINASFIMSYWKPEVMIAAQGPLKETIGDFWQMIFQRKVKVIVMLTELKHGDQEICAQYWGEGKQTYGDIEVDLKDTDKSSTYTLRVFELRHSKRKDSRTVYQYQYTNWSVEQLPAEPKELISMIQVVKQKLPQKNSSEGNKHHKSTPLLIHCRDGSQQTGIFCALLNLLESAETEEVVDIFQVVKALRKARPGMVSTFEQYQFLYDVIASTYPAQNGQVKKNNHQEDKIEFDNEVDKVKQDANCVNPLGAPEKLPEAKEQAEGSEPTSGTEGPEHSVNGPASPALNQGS

B1: YTH24.5-rat IgG2b-PBD (drug-linker B1) (antibody, V domains shown)
VH: QVNLLQSGAALVKPGASVKLSCKASSYTFTDYYIHWVKQSHGKTLEWIGYINPKSGFTNYNEKFRRKATLTVDKSTNTAYMDISRLTSEDSATYYCTRRTGVIPMDAWGQGASVTVSS
VL: DVVMTQTPVSLSVSLGGQVSISCRSSQSFVSSDGNTYLNWYLQKPGQSPQLLIYKVSNRLSGVPDRFSGSGSGTDFTLKISRVEHDDLGVYYCGQASKIPLTFGSGTKLEIKR
modifications: PBD dimer drug-linker B1; light chains unconjugated or attached to a single molecule of B1; sites not given; PBD dimer drug-linker B1 conjugated after TCEP reduction; heavy chains attached to up to five molecules of B1; sites not given; DAR 1.94 (preparation) / 2.00
B2: YTH54.12-hIgG1-AAA-PBD (antibody, DAR 2.10, V domains shown)
VH: EVQLVESGGGLVQPGGSMKLSCAASGFTFSDYYMAWVRQAPKKGLEWVASMSFAGSSTYYGDSVKGRFTISRDNAKTTLYLQMNSLRSEDTATYYCARMYTTDYYLYWYFDFWGPGTMVTVSS
VL: DVQMTQSPSYLAASPGESVSISCKASKSISNYLAWYQQKPGEANKILIYSGSTLQSGTPSRFSGSGSGTDFSLTIRNLEPEDFAVYYCQQYDEKPLTFGSGTKLEIK
B3: YTH54.12-rat IgG2b-PBD (drug-linker B1) (antibody, V domains shown)
VH: B2 VH
VL: DVQMTQSPSYLAASPGESVSISCKASKSISNYLAWYQQKPGEANKILIYSGSTLQSGTPSRFSGSGSGTDFSLTIRNLEPEDFAVYYCQQYDEKPLTFGSGTKLEIKR
modifications: PBD dimer drug-linker B1; light chains unconjugated or attached to a single molecule of B1; sites not given; PBD dimer drug-linker B1 conjugated after TCEP reduction; heavy chains attached to up to five molecules of B1; sites not given; DAR 1.90 (preparation) / 2.00
B4: YTH24.5-hIgG1-AAA-PBD (antibody, DAR 2.08, V domains shown)
VH: B1 VH
VL: DVVMTQTPVSLSVSLGGQVSISCRSSQSFVSSDGNTYLNWYLQKPGQSPQLLIYKVSNRLSGVPDRFSGSGSGTDFTLKISRVEHDDLGVYYCGQASKIPLTFGSGTKLEIK
B5: YTH54.12-B2: rat IgG2b anti-CD45 antibody YTH54.12 conjugated to PBD drug-linker B2 (drawing 44) (conjugate)
heavy: EVQLVESGGGLVQPGGSMKLSCAASGFTFSDYYMAWVRQAPKKGLEWVASMSFAGSSTYYGDSVKGRFTISRDNAKTTLYLQMNSLRSEDTATYYCARMYTTDYYLYWYFDFWGPGTMVTVSSAQTTAPSVYPLAPGCGDTTSSTVTLGCLVKGYFPEPVTVTWNSGALSSDVHTFPAVLQSGLYTLTSSVTSSTWPSQTVTCNVAHPASSTKVDKKVERRNGGIGHKCPTCPTCHKCPVPELLGGPSVFIFPPKPKDILLISQNAKVTCVVVDVSEEEPDVQFSWFVNNVEVHTAQTQPREEQYNSTFRVVSALPIQHQDWMSGKEFKCKVNNKALPSPIEKTISKPKGLVRKPQVYVMGPPTEQLTEQTVSLTCLTSGFLPNDIGVEWTSNGHIEKNYKNTEPVMDSDGSFFMYSKLNVERSRWDSRAPFVCSVVHEGLHNHHVEKSISRPPGK
light: DVQMTQSPSYLAASPGESVSISCKASKSISNYLAWYQQKPGEANKILIYSGSTLQSGTPSRFSGSGSGTDFSLTIRNLEPEDFAVYYCQQYDEKPLTFGSGTKLEIKRADAAPTVSIFPPSMEQLTSGGATVVCFVNNFYPRDISVKWKIDGSEQRDGVLDSVTDQDSKDSTYSMSSTLSLTKVEYERHNLYTCEVVHKTSSSPVVKSFNRNEC
B6: YTH54.12-B7: rat IgG2b anti-CD45 antibody YTH54.12 conjugated to PBD drug-linker B7 (drawing 49) (conjugate)
heavy: B5 heavy
light: B5 light
B7: YTH24.5-B4 (antibody, V domains shown)
VH: B1 VH
VL: B1 VL
modifications: PBD drug-linker B4 (non-cleavable) conjugated; sites and DAR not stated
B8: YTH54.12-B4 (antibody, V domains shown)
VH: B2 VH
VL: B3 VL
modifications: PBD drug-linker B4 (non-cleavable) conjugated; sites and DAR not stated
B9: YTH24.5-B2 (antibody, V domains shown)
VH: B1 VH
VL: B1 VL
modifications: PBD drug-linker B2 conjugated; sites and DAR not stated
B10: YTH54.12-B2 (antibody, V domains shown)
VH: B2 VH
VL: B3 VL
modifications: PBD drug-linker B2 conjugated; sites and DAR not stated
B11: YTH24.5-B7 (antibody, V domains shown)
VH: B1 VH
VL: B1 VL
modifications: PBD drug-linker B7 conjugated; sites and DAR not stated
B12: YTH54.12-B7 (antibody, V domains shown)
VH: B2 VH
VL: B3 VL
modifications: PBD drug-linker B7 conjugated; sites and DAR not stated

These molecules were tested against T1, human CD45 (assay: cell-based or functional assay). Conditions: not given.
B1 was tested, and the “EC50, clonogenic assay, CD34+ PBSC (CD45+)” value (shortened to “EC50 … CD34+ PBSC (CD45+)”) was 16.5 pM, the “EC50, viability assay, Jurkat (CD45+), 72 h” value (shortened to “EC50 … Jurkat (CD45+), 72 h”) was 5.36 pM and the “EC50, viability assay, OCIM1 (CD45+), 72 h” value (“EC50 … OCIM1 (CD45+), 72 h” below) was 1.38 pM. With B2 the “EC50 … CD34+ PBSC (CD45+)” value was 6.4 pM, the “EC50 … Jurkat (CD45+), 72 h” value was 18 pM and the “EC50 … OCIM1 (CD45+), 72 h” value was 9.7 pM. In the case of B3, the “EC50 … CD34+ PBSC (CD45+)” value is reported as 23 pM, the “EC50 … Jurkat (CD45+), 72 h” value is reported as 4.44 pM and the “EC50 … OCIM1 (CD45+), 72 h” value is reported as 1.89 pM. With B4 the “EC50 … CD34+ PBSC (CD45+)” value was 7.9 pM, the “EC50 … Jurkat (CD45+), 72 h” value was 23 pM and the “EC50 … OCIM1 (CD45+), 72 h” value was 6.8 pM.

These molecules were tested on 293T (CD45-) (assay: Cell viability assay 5 days (PrestoBlue), 293T). Conditions: rat IgG2b ADC, n=3.
Assay type: cell-based, human
Method: (§1) OCIM1, Jurkat and Nalm6 cells were seeded at a final concentration of 1.275×10^4/mL and for 5 days in presence of rat IgG2b Mab or ADC or medium (in triplicate) in wells of flat bottom 96-well plates. 293T cells were seeded at 9.3×10^3 cells per 100 uL per well in flat bottom 96-well plates and allowed to adhere the plate for up to 24 hours. 293T cells were subsequently cultured with rat IgG2b Mabs or ADC or medium (in triplicate wells) as described above. PrestoBlue® Cell viability Reagent (Thermo Fisher Scientific) was added to each and incubated for up to 1.5 hours. Fluorescence intensity from each well was detected using a FLUOstar OPTIMA microplate reader (BMG Labtech). Data was plotted using Prism 8.0 and sigmoid dose-response non-linear regression was used to determine EC50 values. Data points are mean±s.d. for representative experiments.
In the case of B5, the EC50 is reported as over 6000 pM. With B6 the EC50 was over 6000 pM.

The molecules below were run on Nalm6 (CD45-) (assay: Cell viability assay 5 days (PrestoBlue), Nalm6). Conditions: rat IgG2b ADC, n=3.
Assay type: cell-based, human
Method: as §1
For B5, the EC50 was 27.9 pM. Work on B6 yielded an EC50 of 1560 pM.

Target: T1, human CD45
Test: cell-based or functional assay
Conditions: not given
Remark: another data set of the same source
With B1 the “Average EC50, viability assay, Jurkat (CD45+), 5 days” value (“Average EC50, viability assay, Jurkat” for short) was 0.213 pM and the “Average EC50, viability assay, OCIM1 (CD45+), 5 days” value (“Average EC50, viability assay, OCIM1” for short) was 0.03 pM. In the case of B3, the “Average EC50, viability assay, Jurkat” value is reported as 0.127 pM and the “Average EC50, viability assay, OCIM1” value is reported as 0.039 pM. With B7 the “Average EC50, viability assay, Jurkat” value was 0.052 pM and the “Average EC50, viability assay, OCIM1” value was 0.096 pM. In the case of B8, the “Average EC50, viability assay, Jurkat” value is reported as 0.091 pM and the “Average EC50, viability assay, OCIM1” value is reported as 0.22 pM. For B9, the “Average EC50, viability assay, Jurkat” value was 2.12 pM and the “Average EC50, viability assay, OCIM1” value was 0.025 pM. With B10 the “Average EC50, viability assay, Jurkat” value was 2.43 pM and the “Average EC50, viability assay, OCIM1” value was 0.58 pM. In the case of B11, the “Average EC50, viability assay, Jurkat” value is reported as 8.4 pM and the “Average EC50, viability assay, OCIM1” value is reported as 2.18 pM. For B12, the “Average EC50, viability assay, Jurkat” value was 4.79 pM and the “Average EC50, viability assay, OCIM1” value was 1.07 pM.

Target: T1, human CD45
Test: cell-based or functional assay
Conditions: not given
Remark: another data set of the same source
With B1 the “Average EC50, clonogenic assay, primary human CD34+ cells” value (“Average EC50, clonogenic assay” below) was 2.64 pM. With B3 the “Average EC50, clonogenic assay” value was 1.52 pM. B7 was tested, and the “Average EC50, clonogenic assay” value was 4.92 pM. In the case of B8, the “Average EC50, clonogenic assay” value is reported as 4.47 pM. For B9, the “Average EC50, clonogenic assay” value was 32.7 pM. B10 was tested, and the “Average EC50, clonogenic assay” value was 23.9 pM. With B11 the “Average EC50, clonogenic assay” value was 35.5 pM. For B12, the “Average EC50, clonogenic assay” value was 45.1 pM.
